Test results published in patent publication US20210395761, “SERINE RECOMBINASES MEDIATING STABLE INTEGRATION INTO PLANT GENOMES” (GREENVENUS, LLC, published 2021).

B1: N. benthamiana pseudo-attB Niben101Scf04574 (dsDNA)
DNA 1: TAGGCTTACATTCCTGATGTACTATCCCATTATGCAATAATAAAGATGCAAAATAGGAAATGTCATTGACAGCTACGAGATCTATCTTTATTGATTCACT
DNA 2: AGTGAATCAATAAAGATAGATCTCGTAGCTGTCAATGACATTTCCTATTTTGCATCTTTATTATTGCATAATGGGATAGTACATCAGGAATGTAAGCCTA
B2: N. benthamiana pseudo-attB Niben101Scf04030 (dsDNA)
DNA 1: TTGCTGTCTTTTCATACTTTTCTAAGTTGAAAGTACTTGAAAGTACGACCAAGAAAATGATTATATTTGACACAGAAAATGCAAGGTACTTTGAATGTGA
DNA 2: TCACATTCAAAGTACCTTGCATTTTCTGTGTCAAATATAATCATTTTCTTGGTCGTACTTTCAAGTACTTTCAACTTAGAAAAGTATGAAAAGACAGCAA
B3: N. benthamiana pseudo-attB Niben101Scf00732 (dsDNA)
DNA 1: not shown
DNA 2: not shown
B4: N. benthamiana pseudo-attB Niben101Scf13522 (dsDNA)
DNA 1: GGATAAGGGAGGGTTTAGATATTTTGAAAGGGTTAAGGGGTAAAATCACTAAGGGGGAATTAACAATGCACACTAGGGTTGCCTTAAAAGTGCCTATATA
DNA 2: TATATAGGCACTTTTAAGGCAACCCTAGTGTGCATTGTTAATTCCCCCTTAGTGATTTTACCCCTTAACCCTTTCAAAATATCTAAACCCTCCCTTATCC
B5: N. benthamiana pseudo-attB Niben101Scf00773 (dsDNA)
DNA 1: ACATGGAGCAATGATGGAGAAAAATGGTGGTCATTACTACTGAAGTTGTCAAAGCAAAGCTGTCAGGTAACATCAAATGATCTCTAAATCAATTAGTCTT
DNA 2: AAGACTAATTGATTTAGAGATCATTTGATGTTACCTGACAGCTTTGCTTTGACAACTTCAGTAGTAATGACCACCATTTTTCTCCATCATTGCTCCATGT
B6: N. benthamiana pseudo-attB Niben101Scf11415 (dsDNA)
DNA 1: CTAATATACATTGACAGTGTTAAAAAAAATCTATTAACGACAATATAGAGAAGAGAGTACTTACATGAATGACGTCTACTTTGACTCCGTCAATTCCAAC
DNA 2: GTTGGAATTGACGGAGTCAAAGTAGACGTCATTCATGTAAGTACTCTCTTCTCTATATTGTCGTTAATAGATTTTTTTTAACACTGTCAATGTATATTAG
B7: lettuce pseudo-attB 13364626 (dsDNA)
DNA 1: TGAATTTCTTATGAAGGTTACAACGCATCGTGGATTACAAGCAATTCTGTTTAGTCTGTTATGTTGTTGAATTTGAATGGATCTTGTCCTCAGTTACTCA
DNA 2: TGAGTAACTGAGGACAAGATCCATTCAAATTCAACAACATAACAGACTAAACAGAATTGCTTGTAATCCACGATGCGTTGTAACCTTCATAAGAAATTCA
B8: lettuce pseudo-attB 310607752 (dsDNA)
DNA 1: CACAAAAAATTGACCATTTCTAGCAACTTCCTATGATACGTTGATACTTTCTAAACATTAATTACAATGACAAAATGAAGTCTACCAAATCATTCATAGA
DNA 2: TCTATGAATGATTTGGTAGACTTCATTTTGTCATTGTAATTAATGTTTAGAAAGTATCAACGTATCATAGGAAGTTGCTAGAAATGGTCAATTTTTTGTG
B9: lettuce pseudo-attB 207599470 (dsDNA)
DNA 1: CAATGGTGAATATAGTCCGGCGACCAACTCTGTCCACTATCAGCAACGATAAAAAGGTCATGCTAAGACCCACAAGCCCAGTCACCACTGCTGACATAAG
DNA 2: CTTATGTCAGCAGTGGTGACTGGGCTTGTGGGTCTTAGCATGACCTTTTTATCGTTGCTGATAGTGGACAGAGTTGGTCGCCGGACTATATTCACCATTG
B10: lettuce pseudo-attB 411877132 (dsDNA)
DNA 1: ATAAGTTTAGATCTTATTGAACTAGGCTTGTGGTGCTTGTTTAAGGCCATAAATCGCCTTATTCAAGCGACAAAAATGAGACGAATAGGTGGAGTCTTCA
DNA 2: TGAAGACTCCACCTATTCGTCTCATTTTTGTCGCTTGAATAAGGCGATTTATGGCCTTAAACAAGCACCACAAGCCTAGTTCAATAAGATCTAAACTTAT
B11: lettuce pseudo-attB 328302882 (dsDNA)
DNA 1: TCCGTCACAAATTGCATCACTACGACTAAGATCTTCATCAATGATTCTATTAAGGAGATTCTTACATTGAAGGAGAAGTTACATAAATTCTTTATTATTT
DNA 2: AAATAATAAAGAATTTATGTAACTTCTCCTTCAATGTAAGAATCTCCTTAATAGAATCATTGATGAAGATCTTAGTCGTAGTGATGCAATTTGTGACGGA
B12: lettuce pseudo-attB 115327723 (dsDNA)
DNA 1: TATTTGTGATGTGACATGACAAATAATGATGTTACAATATTATGTACCTCTAAATGAGATCTAGCATTGAAGATTGCATGAATATTCTTGAGTGTGTTATT
DNA 2: AATAACACACTCAAGAATATTCATGCAATCTTCAATGCTAGATCTCATTTAGAGGTACATAATATTGTAACATCATTATTTGTCATGTCACATCACAAATA

What follows are binders tested against T1, SPβc2 serine recombinase (SPβc2-HA-NLS) (Bacillus subtilis phage SPβc2, UniProt O32006 SEQ:1-545) (assay: cell_activity; partner attP vector). Details: tags: C-terminal HA and SV40 NLS.
T1 sequence (O32006 whole entry): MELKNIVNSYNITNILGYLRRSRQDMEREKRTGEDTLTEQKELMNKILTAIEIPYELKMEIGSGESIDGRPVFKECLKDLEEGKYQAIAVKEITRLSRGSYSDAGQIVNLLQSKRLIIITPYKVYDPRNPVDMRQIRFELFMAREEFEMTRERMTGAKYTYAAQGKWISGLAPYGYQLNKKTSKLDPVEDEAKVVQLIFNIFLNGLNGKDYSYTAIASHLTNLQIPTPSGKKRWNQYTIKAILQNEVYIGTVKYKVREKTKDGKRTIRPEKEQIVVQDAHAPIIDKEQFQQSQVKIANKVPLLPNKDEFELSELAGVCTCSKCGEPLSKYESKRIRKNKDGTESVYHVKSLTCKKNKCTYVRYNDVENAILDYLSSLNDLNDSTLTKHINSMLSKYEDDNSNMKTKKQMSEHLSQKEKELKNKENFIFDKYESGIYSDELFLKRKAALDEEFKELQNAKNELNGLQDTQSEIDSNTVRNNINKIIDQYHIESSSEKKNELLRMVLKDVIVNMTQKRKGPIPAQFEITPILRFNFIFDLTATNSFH
Procedure: Wild tobacco relative Nicotiana benthamiana (Benthi) events were generated through co-transfection of a SPβc2 expression vector (or control filler vector: CAT) plus a target integration vector containing GFP, NptII, and a SPβc2 attachment site (attP, attB, or site-less control). Colonies were regenerated in the presence of a kanamycin gradient to detect NptII and the presence of GFP was determined through illumination with a blue “biolight” together with an appropriate filter (FIG. 1). […] Enhanced regeneration of transgenic colonies varied between 10 and 65 fold and was dependent on the Kanamycin concentration used for selection. […] Very few GFP-positive kanamycin-resistant colonies arose from the attB/SPβc2 or Siteless/SPβc2 conditions, indicating a dependence on the attP site for interaction with plant pseudo-attB sites. […] A total of 126 plants from 91 unique calli events were regenerated, transplanted into soil, and carried forward to seed collection (Table 7).
To determine whether any of the sites identified by GenomeWalker were preferentially utilized for integration by the SPβc2 recombinase, 64 attP/SPβc2 regenerated events were screened by end-point PCR for amplification of the left (35S side) gDNA:insert border.

How did the activity turn out when B1 was run?
The activity was 1 integration events.

B2 was tested. Which activity did it give?
The activity was 2 integration events.

With B3 as the binder, how does the activity read?
Its activity is 1 integration events.

B4 was tested. Which activity did it give?
Its activity is 2 integration events.

How did the activity turn out when B5 was run?
The activity was 1 integration events.

How did the activity turn out when B6 was run?
Its activity is 1 integration events.

Target: T1, SPβc2 serine recombinase (SPβc2-HA-NLS)
Test: cell_activity; partner attP vector
Details: tags: C-terminal HA and SV40 NLS
Remark: another data set of the same source
Excerpt: In addition to the 20 GFP-positive kanamycin-resistant regenerated events, 35 GFP-positive kanamycin-resistant calli were also sampled for gDNA extraction and insertion analysis. These events were not analyzed by qPCR for NPT-II copy number due to the likelihood of circular non-integrated plasmid being present in the callus tissue. The 55 unique GFP-positive kanamycin-resistant attP/SPβc2 events were screened by end-point PCR for the right gDNA:insert junction (SpecR side) for each of the 7 previously identified integration sites. Four of the 7 insertion sites were identified in multiple unique events with one of the integration sites found in 8 events including the 2 events in which it was identified by next-gen sequencing (Table 13). Sanger sequencing of amplicons from both left and right gDNA:insert borders for 3 of the events with integrations in site 7493878 identified a lbp difference in the insert:gDNA recombination site compared to the originally identified borders (FIG. 20 C-E). As was done in Benthi, the population was also screened for presence of the recombinase expression construct (ID363); it was found in 2 out of the 20 regenerated attP/SPβc2 events (data not shown).

For B7, which activity is on record?
The activity was 1 integration events.

B8 was tested. Which activity did it give?
Its activity is 1 integration events.

Which activity does the source give for B9 here?
Its activity is 7 integration events.

Which activity does the source give for B10 here?
The activity was 2 integration events.

Which activity does the source give for B11 here?
The activity was 2 integration events.

Which activity does the source give for B12 here?
The activity was 1 integration events.
